Measurements reported in patent US11426447B2, “Neuregulin for the treatment of tumors of the nervous system” (LEIBNIZ-INSTITUT FUR …, priority 2016, dated 2022).

Tests used:
[1] = Body weight and tolerability of systemically treated animals; type: in vivo, mice
Procedure: A, Schematic representation of the protocol used to assess the efficacy of rhNRG1 treatment on schwannoma growth after experimental sciatic nerve crush injury. B, Serum levels of rhNRG1 after single intraperitoneal injections of 10 μg rhNRG1 per kg body weight measured in pooled blood (n=4 animals; median). C, Body weight of animals receiving (genotype and treatment as indicated) was determined over 13 weeks.
Crush injury-induced schwannoma formation was provoked in 2-month-old mice. Subsequently, administration of rhNRG1 was performed both systemically (by intraperitoneal injection) and locally (by rhNRG1-containing absorbable collagen sponges (ACS)). Vehicle saline solution was given to control animals. In order to assess the bioavailability of intraperitoneally injected rhNRG1 (10 μg per kg body weight), rhNRG1 serum levels were evaluated. Strikingly, rhNRG1 levels reached a peak 2 days after injection (FIG. 1B). […] A significant decline in body weight at the chosen dosage was, however, not observed (FIG. 1C).

[2] = system: crush injury-induced schwannoma; assay: In situ tumour size quantification: sciatic nerve diameter after crush injury-induced schwannoma formation; type: in vivo, Nf2flox;P0-Cre;Nefh-Cre mutant mice; settings: KO mice
Text: Unilateral injuries of sciatic nerves were accomplished according to a previously described method (Bauder and Ferguson, 2012). In brief, 8 to 10 week old mice were anesthetized using 2% isoflurane in 100% oxygen. Fur was then removed from one hind limb. After an appropriate incision of the skin, the gluteal musculature was separated in order to reveal the right sciatic nerve. Using haemostatic forceps (Ultra Fine Haemostat; #13021-12; tip width 0.6 mm; Fine Science Tools; Germany), the nerve was crushed once by the application of a defined pressure for 20 s. The locking mechanism of the haemostatic forceps with a series of interlocking teeth ensured reproducibility and standardization of crush injury. Finally, both the gluteal musculature and skin incision were sutured using appropriate surgical suture material.
An EGF domain containing 7 kDa protein of recombinant human Neuregulin 1 (“rhNRG1”) was purchased from Reprokine (#RKQ02297; USA). Protein was firstly resolved in ddH2O and further diluted in phosphate-buffered saline (PBS) to reach target concentrations. […]
Sciatic nerve crush injury was conducted on WT mice and Nf2flox;P0-Cre;Nefh-Cre mutant mice as described above. […] Moreover by determining the myelin thickness, structural integrity of non-crushed, intact nerves was assessed (FIG. 7).

B1: rhNRG1: EGF domain containing 7 kDa protein of recombinant human Neuregulin 1, purchased from Reprokine (#RKQ02297) (protein, listed as Homo sapiens)
chain: SHLVKCAEKEKTFCVNGGECFMVKDLSNPSRYLCKCPNEFTGDRCQNYVMASFYKHLGIEF
[1]; 10 μg/kg, Nf2flox;P0-Cre;Nefh-Cre animals
  tolerability: well tolerated
[1]; systemic treatment at chosen dosage (10 μg/kg ip every other day), weighed weekly over 13 weeks
  significant decline in body weight: not observed
[2]; local collagen sponges soaked in 0.2 mg/ml rhNRG1, KO vehicle ACS about 1.8 mm, WT about 1 mm
  sciatic nerve diameter 3 months after crush injury: about 1.4 mm
[2]; systemic (ip) rhNRG1, KO vehicle about 2 mm, WT vehicle about 1 mm
  sciatic nerve diameter 3 months after crush injury: about 1.5 mm
